Measurements: patent US20040167074A1, “Therapeutic applications of mFLINT polypeptides” (priority 1998, published 2004)

Legend:
TNFβ = target: T1, TNFβ (Homo sapiens, UniProt P01374); experiment: Dot blot binding of mFLINT to TNF ligands
T1 construct: purchased
T1 sequence (P01374 35-205): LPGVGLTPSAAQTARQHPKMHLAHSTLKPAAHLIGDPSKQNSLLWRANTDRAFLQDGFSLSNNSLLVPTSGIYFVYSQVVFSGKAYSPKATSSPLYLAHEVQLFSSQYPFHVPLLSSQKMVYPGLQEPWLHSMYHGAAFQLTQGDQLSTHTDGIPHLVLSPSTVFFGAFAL

CD40 L = target: T2, CD40 L (Homo sapiens, UniProt P29965); experiment: Dot blot binding of mFLINT to TNF ligands
T2 construct: purchased
T2 sequence (P29965 113-261 limits assumed): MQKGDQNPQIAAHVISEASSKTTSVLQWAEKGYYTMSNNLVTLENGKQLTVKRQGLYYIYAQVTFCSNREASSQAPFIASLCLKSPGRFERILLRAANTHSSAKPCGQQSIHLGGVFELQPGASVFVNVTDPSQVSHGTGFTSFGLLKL

FasL = target: T3, FasL (Homo sapiens, UniProt P48023); experiment: BiaCore real-time biomolecular interaction analysis (surface plasmon resonance); format: binding
T3 construct: purchased Kamiya Biomedical Company
T3 sequence (P48023 130-281 limits assumed): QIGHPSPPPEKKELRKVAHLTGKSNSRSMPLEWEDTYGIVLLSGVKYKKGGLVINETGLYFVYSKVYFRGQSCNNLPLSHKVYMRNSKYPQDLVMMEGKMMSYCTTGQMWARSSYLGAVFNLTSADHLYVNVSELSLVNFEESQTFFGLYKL
Text: FLINT-Fas L binding may be confirmed and specifics of binding determined (e.g., kinetics, specificity, affinity, cooperativity, relative binding pattern, concentration) using real-time biomolecular interaction analysis. This technology confers the ability to study biomolecular interactions in real time, without labeling any of the interactants. In particular, it takes advantage of the optical phenomenon surface plasmon resonance, and detection depends on changes in the mass concentration of macromolecules at the biospecific interface. Interactions are followed in real time, so that kinetic information is readily derived. In many cases, investigations can be performed without prior purification of components.
Measurements are accomplished using a BiaCore 2000 instrument. The instrument, accompanying chips, immobilization and maintenance kits and buffers are obtained from Biacore AB, Rapsgatan 7, S-754 50 Uppsala, Sweden. FasL is obtained from Kamiya Biomedical Company, 910 Industry Drive, Seattle, Wash. 98188, Guanidine Isothiocyanate Solution from GibcoBRL, and mFLINT is prepared as in Examples 8 and 9.
Experiments using immobilized FasL loaded with a solution containing mFLINT. […] This is explained by the fact that FasL is a trimer, yet here FasL monomer was bound. Further experiments utilized bound FLINT with FasL in solution, allowing for trimer formation. […] This observations indicate that FLINT should effectively compete with Fas for FasL binding, which likely explains the therapeutic benefit observed in experiments detailed below.

[1] = tested on: Mouse T cell hybridoma cells (LTT cells); experiment: Murine FasL-mediated apoptosis of LTT cells (Annexin V assay); format: cell-based; conditions: test agent 1 μg/ml
Procedure: LTT,2,14,11 cells (LTT cells), see Glasebrook, Eur.J.Immunol. 17: 1561-65 (1987), were used in this Annexin V assay. On the first day, a 96 well plate was coated with anti-CD3 (2C11) at a serial dilutions. On the second day, 100,000 LTT cells were added, in 50 μl of medium per well, along with 50 μl of medium to the control wells and 50 μl of medium containing:
Group 1. solubleFas (sFas)(FasFc, mouse), with a final concentration of 1 μg/ml
Group 2. mFLINT (human), with a final concentration of 1 ug/ml
Group 3. anti-FasL (mouse), with a final concentration of 1 ug/ml.
These then were incubated overnight, at 37° C., in 5% CO2;
On the following day (Day 3), the cells were collected from each well, washed and labeled with Annexin V and PI, following Flow cytometry analysis.

TNFα = target: T4, TNFα (Homo sapiens, UniProt P01375); experiment: Dot blot binding of mFLINT to TNF ligands
T4 construct: purchased

TRANCE = target: T5, TRANCE (Homo sapiens, UniProt O14788); experiment: Dot blot binding of mFLINT to TNF ligands
T5 construct: purchased
T5 sequence (O14788 140-317 limits assumed): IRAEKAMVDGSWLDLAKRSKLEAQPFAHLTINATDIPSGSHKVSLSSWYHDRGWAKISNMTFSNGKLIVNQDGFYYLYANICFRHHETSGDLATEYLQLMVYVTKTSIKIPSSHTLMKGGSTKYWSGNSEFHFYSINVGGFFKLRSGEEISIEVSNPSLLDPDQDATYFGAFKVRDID

Jurkat cells = experiment: anti-CD3 induced Jurkat apoptosis (Annexin V/PI, FACS); format: cell-based; design: Cell apoptosis (Annexin V, FACS): unit not given here; conditions: for Cell apoptosis (positive staining with Annexin V): Example 12; for Cell apoptosis (Annexin V, FACS): Example 14
Procedure: Non-tissue treated 24 well plates (Decton Dickinson, Mansfield, Mass.) were coated with 0.5 ml of 1 ug/ml anti-CD3 (Farmingen) in PBS for 90 min at 37° C. The plate was washed once with PBS.
Cells were incubated overnight at 37° C. incubator and cells were then stained by Annexin V and PI staining. Apotosis was analyzed by flow cytometer (FACS). Cell apoptosis was indicated by positive staining with Annexin V.

[2] = target: T6, Fas-FasLigand interaction (Homo sapiens, UniProt P48023); experiment: ELISA: FLINT prevents Fas-FasLigand interaction; format: binding; conditions: hFasLigand 30 ng, mrecFas 100 ng adsorbed
T6 sequence (P48023 103-281 limits assumed): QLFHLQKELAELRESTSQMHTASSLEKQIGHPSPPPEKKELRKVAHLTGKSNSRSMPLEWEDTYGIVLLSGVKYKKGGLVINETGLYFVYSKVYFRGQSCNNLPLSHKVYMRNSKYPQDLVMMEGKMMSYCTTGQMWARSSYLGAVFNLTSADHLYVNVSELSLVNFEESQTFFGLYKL
Procedure: As above, mrecFas (100 ng) was adsorbed on to ELISA plate. Again the plate was blocked by TBST and 0.1% Gelatine. […] As before, after washing of the plate, anti-mouse-Abs-HRP (3000 dilution, Bio-Rad) was added to the wells. After washings, visualization enzymatic reaction using ABTS as a substrate was performed.

T4 sequence (P01375 77-233 limits assumed, species assumed): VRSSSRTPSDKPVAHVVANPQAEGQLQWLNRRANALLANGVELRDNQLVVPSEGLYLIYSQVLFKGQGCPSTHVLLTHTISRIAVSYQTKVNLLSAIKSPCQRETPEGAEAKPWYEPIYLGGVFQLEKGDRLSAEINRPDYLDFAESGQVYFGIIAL

B1: mFLINT: mature FLINT without leader peptide (FIG. 3), soluble TNFR superfamily member, made according to Examples 8 and 9 (protein)
chain: VAETPTYPWRDAETGERLVCAQCPPGTFVQRPCRRDSPTTCGPCPPRHYTQFWNYLERCRYCNVLCGEREEEARACHATHNRACRCRTGFFAHAGFCLEHASCPPGAGVIAPGTPSQNTQCQPCPPGTFSASSSSSEQCQPHRNCTALGLALNVPGSSSHDTLCTSCTGFPLSTRVPGAEECERAVIDFVAFQDISIKRLQRLLQALEAPEGWGPTPRAGRAALQLKLRRRLTELLGAQDGALLVRLLQALRVARMPGLERSVRERFLPVH
modifications: glycosylated
TNFβ
  binding in dot blot: No appreciable binding
CD40 L
  binding in dot blot: No appreciable binding
FasL; bound FLINT with FasL in solution, allowing trimer formation
  KD for FLINT-FasL relative to immobilized-FasL experiment: 2 orders of magnitude better
FasL; immobilized FasL (monomer bound), analyte in solution
  Kd: 113 nM
[1]; Anti CD3 0
  % Annexin V Positive: 26.47%
[1]; Anti CD3 0.11
  % Annexin V Positive: 33.24%
[1]; Anti CD3 0.33
  % Annexin V Positive: 35.89%
[1]; Anti CD3 1
  % Annexin V Positive: 34.41%
TNFα
  binding in dot blot: No appreciable binding
TRANCE
  binding in dot blot: No appreciable binding
Jurkat cells; Jurkat + antiCD3 + 1 ug test agent
  Cell apoptosis (positive staining with Annexin V): 27.77
Jurkat cells; Jurkat + antiCD3 + 2 ug test agent
  Cell apoptosis (positive staining with Annexin V): 18.67
Jurkat cells; anti CD3 + 15.625 ng
  Cell apoptosis (Annexin V, FACS): 28.80
Jurkat cells; anti CD3 + 31.25 ng
  Cell apoptosis (Annexin V, FACS): 28.21
Jurkat cells; anti CD3 + 62.5 ng
  Cell apoptosis (Annexin V, FACS): 28.99
Jurkat cells; anti CD3 + 125 ng
  Cell apoptosis (Annexin V, FACS): 29.4
Jurkat cells; anti CD3 + 250 ng
  Cell apoptosis (Annexin V, FACS): 28.93
Jurkat cells; anti CD3 + 500 ng
  Cell apoptosis (Annexin V, FACS): 27.48
Jurkat cells; anti CD3 + 1000 ng
  Cell apoptosis (Annexin V, FACS): 24.29
Jurkat cells; anti CD3 + 2000 ng
  Cell apoptosis (Annexin V, FACS): 17.02
Jurkat cells; anti CD3 + 3000 ng
  Cell apoptosis (Annexin V, FACS): 14.68
[2]; FLINT 1 ng
  OD, 405 nM: 0.36
[2]; FLINT 5 ng
  OD, 405 nM: 0.36
[2]; FLINT 10 ng
  OD, 405 nM: 0.36
[2]; FLINT 50 ng
  OD, 405 nM: 0.28
[2]; FLINT 100 ng
  OD, 405 nM: 0.18
[2]; FLINT 500 ng
  OD, 405 nM: 0.06
